The record followed here is US20050227220A1, “Compositions and Methods for Evaluating and Designing Nuclear Receptor Ligands that Modulate Co-Regulator Affinity” (priority 2002, published 2005).

No end group written: not given here. fluorescein = fluorescein: fluorescein label attached at the N-terminus of the peptide

T1: biotin-NCOR ID-C peptide (NCoR amino acids 2251-2275) (N-terminal biotin)
T1 construct: also called NCOR-derived co-repressor peptide
T1 peptide: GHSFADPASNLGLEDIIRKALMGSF

T2: TRAP220 peptide (amino acids 575-599) (not fully specified; printed as N-terminal biotin in Example 1; label in the polarization assay not specified)
T2 construct: also called TRAP220 575-599
T2 peptide: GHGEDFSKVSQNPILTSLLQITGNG

T3: TRβ ligand binding domain (UniProt P10828 202-461, limits assumed)
T3 construct: also called Thyroid Receptor LBD; TRβ LBD
T3 sequence (looked up): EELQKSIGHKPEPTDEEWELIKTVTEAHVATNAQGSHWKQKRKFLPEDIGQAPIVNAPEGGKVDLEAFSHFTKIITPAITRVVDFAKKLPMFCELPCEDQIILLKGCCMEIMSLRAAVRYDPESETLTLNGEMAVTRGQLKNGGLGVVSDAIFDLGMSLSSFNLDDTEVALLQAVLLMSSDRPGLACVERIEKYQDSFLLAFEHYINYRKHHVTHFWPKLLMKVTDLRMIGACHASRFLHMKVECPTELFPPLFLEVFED

T4: RARα ligand binding domain (amino acids 146-432) (UniProt P10276 146-432)
T4 construct: range 146-432; not shown: His-tag
T4 sequence (looked up): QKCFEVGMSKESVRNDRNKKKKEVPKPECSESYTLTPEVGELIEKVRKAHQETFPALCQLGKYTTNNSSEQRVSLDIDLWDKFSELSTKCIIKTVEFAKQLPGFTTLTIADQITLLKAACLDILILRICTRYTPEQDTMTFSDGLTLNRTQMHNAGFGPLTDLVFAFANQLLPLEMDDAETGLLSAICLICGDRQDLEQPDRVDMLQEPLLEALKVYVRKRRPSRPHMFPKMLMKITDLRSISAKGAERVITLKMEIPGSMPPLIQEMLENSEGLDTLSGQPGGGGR

T5: human PPARα ligand binding domain (amino acids 192-468) (human, UniProt Q07869 192-468)
T5 construct: range 192-468; placed at the N-terminus here; Biotinylated for FRET; also called PPARα LBD
T5 sequence: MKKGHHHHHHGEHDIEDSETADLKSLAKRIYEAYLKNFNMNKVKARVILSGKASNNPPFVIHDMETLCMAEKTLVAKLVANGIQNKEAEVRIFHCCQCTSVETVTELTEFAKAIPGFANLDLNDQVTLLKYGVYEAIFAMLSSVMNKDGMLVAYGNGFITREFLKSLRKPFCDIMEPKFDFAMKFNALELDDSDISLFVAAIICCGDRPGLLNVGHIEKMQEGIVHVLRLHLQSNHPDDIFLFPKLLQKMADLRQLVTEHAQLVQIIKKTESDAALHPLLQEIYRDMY

B1: VP16-human PPARα (full length) (other)
chain: LSTAPPTDVSLGDELHLDGEDVAMAHADALDDFDLDMLGDGDSPGPGFTPHDSAPYGALDMADFEFEQMFTDALGIDEYGGMVDTESPLCPLSPLEAGDLESPLSEEFLQEMGNIQEISQSIGEDSSGSFGFTEYQYLGSCPGSDGSVITDTLSPASSPSSVTYPVVPGSVDESPSGALNIECRICGDKASGYHYGVHACEGCKGFFRRTIRLKLVYDKCDRSCKIQKKNRNKCQYCRFHKCLSVGMSHNAIRFGRMPRSEKAKLKAEILTCEHDIEDSETADLKSLAKRIYEAYLKNFNMNKVKARVILSGKASNNPPFVIHDMETLCMAEKTLVAKLVANGIQNKEAEVRIFHCCQCTSVETVTELTEFAKAIPGFANLDLNDQVTLLKYGVYEAIFAMLSSVMNKDGMLVAYGNGFITREFLKSLRKPFCDIMEPKFDFAMKFNALELDDSDISLFVAAIICCGDRPGLLNVGHIEKMQEGIVHVLRLHLQSNHPDDIFLFPKLLQKMADLRQLVTEHAQLVQIIKKTESDAALHPLLQEIYRDMY
notes: also called VP16 full length PPARα
B2: human PPARδ ligand binding domain (amino acids 139-441) (receptor)
chain: MKKGHHHHHHGSHNAIRFGRMPEAEKRKLVAGLTANEGSQYNPQVADLKAFSKHIYNAYLKNFNMTKKKARSILTGKASHTAPFVIHDIETLWQAEKGLVWKQLVNGLPPYKEISVHVFYRCQCTTVETVRELTEFAKSIPSFSSLFLNDQVTLLKYGVHEAIFAMLASIVNKDGLLVANGSGFVTREFLRSLRKPFSDIIEPKFEFAVKFNALELDDSDLALFIAAIILCGDRPGLMNVPRVEAIQDTILRALEFHLQANHPDAQYLFPKLLQKMADLRQLVTEHAQMMQRIKKTETETSLHPLLQEIYKDMY
modifications: Biotinylated (site not stated) in the FRET assays; unlabelled in fluorescence polarization and SPR.
notes: placed at the N-terminus here; Biotinylated for FRET; also called PPARδ LBD
B3: human PPARγ ligand binding domain (amino acids 206-477) (receptor)
chain: MKKGHHHHHHGPESADLRALAKHLYDSYIKSFPLTKAKARAILTGKTTDKSPFVIYDMNSLMMGEDKIKFKHITPLQEQSKEVAIRIFQGCQFRSVEAVQEITEYAKSIPGFVNLDLNDQVTLLKYGVHEIIYTMLASLMNKDGVLISEGQGFMTREFLKSLRKPFGDFMEPKFEFAVKFNALELDDSDLAIFIAVIILSGDRPGLLNVKPIEDIQDNLLQALELQLKLNHPESSQLFAKLLQKMTDLRQIVTEHVQLLQVIKKTETDMSLHPLLQEIYKDLY
notes: range 206-477; placed at the N-terminus here; Biotinylated for FRET; also called PPARγ LBD
B4: Fluoroscein-NCOR ID-C peptide (NCoR amino acids 2251-2275) (peptide)
peptide: fluorescein-GHSFADPASNLGLEDIIRKALMGSF
notes: also called NCOR peptide; NCoR 2251-2275
B5: RXRα ligand binding domain (amino acids 225-462) (receptor, UniProt P19793 225-462, looked up)
chain: SANEDMPVERILEAELAVEPKTETYVEANMGLNPSSPNDPVTNICQAADKQLFTLVEWAKRIPHFSELPLDDQVILLRAGWNELLIASFSHRSIAVKDGILLATGLHVHRNSAHSAGVGAIFDRVLTELVSKMRDMQMDKTELGCLRAIVLFNPDSKGLSNPAEVEALREKVYASLEAYCKHKYPEQPGRFAKLLLRLPALRSIGLKCLEHLFFFKLIGDTPIDTFLMEMLEAPHQMT
notes: range 225-462; Biotinylated for FRET; also called RXRα LBD; not shown: His-tag

Test [1] has as its target T6, GAL4-NcoR (1944-end) (UniProt P04386 1-147; O75376 1944-2440).
T6 construct: range 1-147;range 1944-end; Two-hybrid construct; also called larger fragment of NCoR (1944-end)
Nature of the test: mammalian two-hybrid in CV-1 cells.

Test [2] addresses T1, biotin-NCOR ID-C peptide (NCoR amino …). The test is described as follows: FRET, with GW1929.
Test [3] has the same target. The test is described as follows: FRET, with GW7845.
Test [4] concerns the target B4. The test is described as follows: fluorescence polarization, with GW1929.
Test [5] addresses T2, TRAP220 peptide (amino acids 575-599). Nature of the test: fluorescence polarization, with GW1929. On the technique in general: Polarisation of emitted light reports the rotation of a fluorescent probe.
Test [6] has as its target B4. Nature of the test: fluorescence polarization, with rosiglitazone.
Test [7] addresses T2, TRAP220 peptide (amino acids 575-599). The test is described as follows: fluorescence polarization, with rosiglitazone.
Test [8] has as its target T3, TRβ ligand binding domain. Nature of the test: fluorescence polarization, apparent affinity, with T3.
The target in test [9] is B3. Nature of the test: fluorescence polarization, apparent affinity, no ligand.
Test [10] concerns the target T3, TRβ ligand binding domain. The description is as above.
Test [11] addresses B3. Nature of the test: fluorescence polarization, apparent affinity, with GW1929.
In test [12] the target is B2. The test is described as above.
Test [13] deals with B3. The test is described as follows: fluorescence polarization, apparent affinity, with rosiglitazone.
For test [14], the target named is B2. The description is as above.
Test [15] addresses B3. The test is described as follows: fluorescence polarization, 10 nM fluorescein peptide, LBD titrated, no ligand.
Test [16] deals with B2. Described as above.
Test [17] deals with B5. The description is as above.
Test [18] concerns the target T7, ERβ ligand binding domain (amino acids 257-530) (UniProt Q92731 257-530).
T7 construct: range 257-530; not shown: His-tag
The description is as above.

Test [19] concerns the target T3, TRβ ligand binding domain. The description is as above.
The target of test [20] is T4, RARα ligand binding domain (amino acids …). The description is as above.
The target in test [21] is T5, human PPARα ligand binding domain …. The description is as above.
Test [22] addresses B3. Nature of the test: FRET, biotinylated PPAR LBD and RXRα LBD on labelled streptavidin.
Test [23] addresses B2. The test is described as above.
For test [24], the target named is T5, human PPARα ligand binding domain …. The description is as above.

T7 sequence (Q92731 257-530 limits assumed): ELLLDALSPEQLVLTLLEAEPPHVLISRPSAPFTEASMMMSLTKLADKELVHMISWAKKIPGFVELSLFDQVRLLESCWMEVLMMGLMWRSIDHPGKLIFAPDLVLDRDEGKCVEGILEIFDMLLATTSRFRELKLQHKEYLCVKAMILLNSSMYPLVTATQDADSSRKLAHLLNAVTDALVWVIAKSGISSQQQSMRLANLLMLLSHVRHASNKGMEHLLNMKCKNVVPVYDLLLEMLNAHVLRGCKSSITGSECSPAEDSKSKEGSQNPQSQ

For the molecule B1, the binding result in test [1] is “binds”.

Consider B2, for which the results for the “log α (ratio of cofactor affinities with and without saturating ligand)” value in test [2] and in [3] were 0.52 and 0.14, respectively. The “fold increase in affinity with GW1929 against no ligand” value in [4] stood at 12 fold.

As for B3, the “fold decrease in affinity with GW1929 against no ligand” value in test [4] worked out at 5 fold. Besides, in [5], the “fold increase in affinity with GW1929 against no ligand” value was 5 fold. The “fold decrease in affinity with rosiglitazone against no ligand” value in test [6] is around 4 fold. Besides, the “fold increase in affinity with rosiglitazone against no ligand” value in test [7] was around 3 fold.

As for B4, the Kd in [8] was 6.2 µM; in test [9] it was 1.2 µM; in test [10], 0.72 µM; in [11], 6.7 µM; in test [12], 0.44 µM; in [13] it was 4.7 µM. For the same molecule, the Kd in test [14] was 5 µM; in [15], 1.3 µM; in [16], 5.7 µM; in [17], 25 µM; in [18], 37 µM; in test [19] it was 1.3 µM. For the same molecule, the results for the Kd in test [20] and in test [21] were 2 µM and 6.1 µM, respectively.

On to B5, for which the binding result in test [22], in [23] and in test [24] was “binds” each time.
